Values quoted from earlier work as cited in publication PMC10003451, “Phosphorylated Peptide Derived from the Myosin Phosphatase Target Subunit Is a Novel Inhibitor of Protein Phosphatase-1” (International Journal of Molecular Sciences, 2023).

What was measured:
PP1c = biological target: T1, PP1c (Homo sapiens, UniProt P62136); parameters: method as in 2 sources, ref 30 = [30]; PMID 12030846; doi:10.1042/bj20020401; 30. Murányi A. MacDonald J.A. Deng J.T. Wilson D.P. Haystead T.A. Walsh M.P. Erdődi F. Kiss E. Wu Y. Hartshorne D.J. Phosphorylation of the myosin phosphatase target subunit by integrin-linked kinase ||| ref 31 = [31]; PMID 19531490; doi:10.1074/jbc.M109.019729; 31. Khromov A. Choudhury N. Stevenson A.S. Somlyo A.V. Eto M. Phosphorylation-dependent autoinhibition of myosin light chain phosphatase accounts for Ca 2+ sensitization force of smooth muscle contrac
T1 construct: made in house; host or cells: E. coli

MP holoenzyme = tested on: MP holoenzyme; parameters: method as in PMID 19531490; details: phosphorylated at Thr696

T1 sequence (P62136 whole entry): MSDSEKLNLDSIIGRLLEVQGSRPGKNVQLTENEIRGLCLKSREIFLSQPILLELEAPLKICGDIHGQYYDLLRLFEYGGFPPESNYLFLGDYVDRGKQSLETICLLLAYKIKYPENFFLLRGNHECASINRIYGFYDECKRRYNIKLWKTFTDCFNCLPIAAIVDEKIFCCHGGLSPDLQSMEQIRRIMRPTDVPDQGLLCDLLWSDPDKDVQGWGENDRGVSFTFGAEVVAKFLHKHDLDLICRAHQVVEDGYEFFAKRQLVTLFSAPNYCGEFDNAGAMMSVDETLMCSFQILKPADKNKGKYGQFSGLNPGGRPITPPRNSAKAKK

Molecule	effect on PP1c (literature) (PP1c; phosphorylated at Thr696)	inhibition of MP holoenzyme (literature) (MP holoenzyme)	IC50 (PP1c; phosphorylated at Thr654 (corresponding to Thr696 in the longer MYPT1 isoform), read-out: IC50, inhibition of PP1c (literature)) [nM]
GST-MYPT1^654−880: GST-MYPT1^654−880 fragment phosphorylated at Thr696 (protein, UniProt O14974 654-880, looked up, fragment, GST fusion; phosphorylated Thr696, GST-MYPT1^654−880 fragment phosphorylated at Thr696) GTVSSTTEVRERRRSYLTPVRDEESESQRKARSRQARQSRRSTQGVTLTDLQEAEKTIGRSRSTRTREQENEEKEKEEKEKQDKEKQEEKKESETSREDEYKQKYSRTYDETYQRYRPVSTSSSTTPSSSLSTMSSSLYASSQLNRPNSLVGITSAYSRGITKENEREGEKREEEKEGEDKSQPKSIRERRRPREKRRSTGVSFWTQDSDENEQEQQSDTEEGSNKK	without effect on PP1c	inhibited MP holoenzyme potently in nanomolar concentrations	–
His-tagged MYPT1^514−963: C-terminal fragment of a recombinant His-tagged MYPT1 phosphorylated at Thr654 (protein, UniProt O14974 514-963, looked up, fragment, His tag; phosphorylated Thr654) KENRDSSSLRTSSSYTRRKWEDDLKKNSSVNEGSTYHKSCSFGRRQDDLISSSVPSTTSTPTVTSAAGLQKSLLSSTSTTTKITTGSSSAGTQSSTSNRLWAEDSTEKEKDSVPTAVTIPVAPTVVNAAASTTTLTTTTAGTVSSTTEVRERRRSYLTPVRDEESESQRKARSRQARQSRRSTQGVTLTDLQEAEKTIGRSRSTRTREQENEEKEKEEKEKQDKEKQEEKKESETSREDEYKQKYSRTYDETYQRYRPVSTSSSTTPSSSLSTMSSSLYASSQLNRPNSLVGITSAYSRGITKENEREGEKREEEKEGEDKSQPKSIRERRRPREKRRSTGVSFWTQDSDENEQEQQSDTEEGSNKKETQTDSISRYETSSTSAGDRYDSLLGRSGSYSYLEERKPYSSRLEKDDSTDFKKLYEQILAENEKLKAQLHDTNMELTDLKLQ	–	–	~100
